# Measured values reported in patent US20160139118A1, “NOVEL ASSAY” (GLAXOSMITHKLINE INTELLECTUAL PROPERTY (NO.2) LIMITED, priority 2013, published 2016).
# Tested on: CFI
# Test: CFI bioactivity in plasma samples from Alzheimer's disease patients treated with Compound A
# Assay type: in vivo, human
# Settings: 6 mg/kg intravenously
# Protocol: FIG. 15. CFI bioactivity in samples from Alzheimer's disease patients treated with anti-BAM (Compound A).
# 3.14. Providing Evidence that an Anti-BAM Antibody can Modulate CFI Bioactivity in Alzheimer's Patients. Finally, a set of human samples from Alzheimer disease patients treated with Compound A were evaluated for CFI bioactivity in a single assay. The assay conditions follow: • 80 μg/ml CFH and C3b. • 0.01-25 nL of plasma (half-log dilutions). • Incubation 2 hours. • Measurement of iC3b via ELISA. • Samples from one patient were run in a single assay. • Each assay was run in singlets. • To control inter-assay variability a common plasma sample was run in each assay.
molecule,measurement,setting,value
"Compound A: anti-BAM antibody comprising a heavy chain of SEQ ID NO: 10 and a light chain of SEQ ID NO: 11 (antibody, Mature H2 heavy chain amino acid sequence.; Mature Light chain amino acid sequence.) heavy: EVQLVESGGGLVQPGGSLRLSCAVSGFTFSDNGMAWVRQAPGKGLEWVSFISNLAYSIDYADTVTGRFTISRDNAKNSLYLQMNSLRAEDTAVYYCVSGTWFAYWGQGTLVTVSSASTKGPSVFPLAPSSKSTSGGTAALGCLVKDYFPEPVTVSWNSGALTSGVHTFPAVLQSSGLYSLSSVVTVPSSSLGTQTYICNVNHKPSNTKVDKKVEPKSCDKTHTCPPCPAPELAGAPSVFLFPPKPKDTLMISRTPEVTCVWDVSHEDPEVKFNWYVDGVEVHNAKTKPREEQYNSTYRWSVLTVLHQDWLNGKEYKCKVSNKALPAPIEKTISKAKGQPREPQVYTLPPSRDELTKNQVSLTCLVKGFYPSDIAVEWESNGQPENNYKTTPPVLDSDGSFFLYSKLTVDKSRWQQGNVFSCSVMHEALHNHYTQKSLSLSPGK light: DIVMTQSPLSLPVTPGEPASISCRVSQSLLHSNGYTYLHWYLQKPGQSPQLLIYKVSNRFSGVPDRFSGSGSGTDFTLKISRVEAEDVGVYYCSQTRHVPYTFGGGTKVEIKRTVAAPSVFIFPPSDEQLKSGTASVVCLLNNFYPREAKVQWKVDNALQSGNSQESVTEQDSKDSTYSLSSTLTLSKADYEKHKVYACEVTHQGLSSPVTKSFNRGEC",overall increase of CFI bioactivity,after the second administration,10%
same,overall increase of CFI bioactivity,after the third administration,28%
